Reference: US20140220159A1

How the values were obtained:
[1] = molecular target: HPV16 E6 (human papillomavirus type 16 (HPV16)) (UniProt P03126); assay: cell-based or functional assay
[2] = molecular target: MDM2 (UniProt Q00987); assay: cell-based or functional assay
Chain of MDM2 (Q00987 whole entry): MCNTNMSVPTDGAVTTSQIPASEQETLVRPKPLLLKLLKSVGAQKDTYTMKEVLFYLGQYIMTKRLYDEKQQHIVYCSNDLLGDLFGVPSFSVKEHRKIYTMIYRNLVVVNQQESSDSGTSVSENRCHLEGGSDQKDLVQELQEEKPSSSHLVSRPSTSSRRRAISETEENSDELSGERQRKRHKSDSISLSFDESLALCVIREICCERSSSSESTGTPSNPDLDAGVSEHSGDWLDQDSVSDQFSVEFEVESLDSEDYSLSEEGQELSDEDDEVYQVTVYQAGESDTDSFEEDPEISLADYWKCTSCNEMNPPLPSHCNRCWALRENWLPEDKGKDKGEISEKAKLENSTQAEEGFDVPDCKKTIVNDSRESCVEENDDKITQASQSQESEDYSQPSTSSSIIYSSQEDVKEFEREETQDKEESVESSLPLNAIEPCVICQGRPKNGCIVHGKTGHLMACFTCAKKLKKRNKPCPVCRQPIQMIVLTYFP

Chain of exogenous CH1 domain of p300 (pcDNA3.1/CH1) (Q09472 whole entry, the tested form may be a part): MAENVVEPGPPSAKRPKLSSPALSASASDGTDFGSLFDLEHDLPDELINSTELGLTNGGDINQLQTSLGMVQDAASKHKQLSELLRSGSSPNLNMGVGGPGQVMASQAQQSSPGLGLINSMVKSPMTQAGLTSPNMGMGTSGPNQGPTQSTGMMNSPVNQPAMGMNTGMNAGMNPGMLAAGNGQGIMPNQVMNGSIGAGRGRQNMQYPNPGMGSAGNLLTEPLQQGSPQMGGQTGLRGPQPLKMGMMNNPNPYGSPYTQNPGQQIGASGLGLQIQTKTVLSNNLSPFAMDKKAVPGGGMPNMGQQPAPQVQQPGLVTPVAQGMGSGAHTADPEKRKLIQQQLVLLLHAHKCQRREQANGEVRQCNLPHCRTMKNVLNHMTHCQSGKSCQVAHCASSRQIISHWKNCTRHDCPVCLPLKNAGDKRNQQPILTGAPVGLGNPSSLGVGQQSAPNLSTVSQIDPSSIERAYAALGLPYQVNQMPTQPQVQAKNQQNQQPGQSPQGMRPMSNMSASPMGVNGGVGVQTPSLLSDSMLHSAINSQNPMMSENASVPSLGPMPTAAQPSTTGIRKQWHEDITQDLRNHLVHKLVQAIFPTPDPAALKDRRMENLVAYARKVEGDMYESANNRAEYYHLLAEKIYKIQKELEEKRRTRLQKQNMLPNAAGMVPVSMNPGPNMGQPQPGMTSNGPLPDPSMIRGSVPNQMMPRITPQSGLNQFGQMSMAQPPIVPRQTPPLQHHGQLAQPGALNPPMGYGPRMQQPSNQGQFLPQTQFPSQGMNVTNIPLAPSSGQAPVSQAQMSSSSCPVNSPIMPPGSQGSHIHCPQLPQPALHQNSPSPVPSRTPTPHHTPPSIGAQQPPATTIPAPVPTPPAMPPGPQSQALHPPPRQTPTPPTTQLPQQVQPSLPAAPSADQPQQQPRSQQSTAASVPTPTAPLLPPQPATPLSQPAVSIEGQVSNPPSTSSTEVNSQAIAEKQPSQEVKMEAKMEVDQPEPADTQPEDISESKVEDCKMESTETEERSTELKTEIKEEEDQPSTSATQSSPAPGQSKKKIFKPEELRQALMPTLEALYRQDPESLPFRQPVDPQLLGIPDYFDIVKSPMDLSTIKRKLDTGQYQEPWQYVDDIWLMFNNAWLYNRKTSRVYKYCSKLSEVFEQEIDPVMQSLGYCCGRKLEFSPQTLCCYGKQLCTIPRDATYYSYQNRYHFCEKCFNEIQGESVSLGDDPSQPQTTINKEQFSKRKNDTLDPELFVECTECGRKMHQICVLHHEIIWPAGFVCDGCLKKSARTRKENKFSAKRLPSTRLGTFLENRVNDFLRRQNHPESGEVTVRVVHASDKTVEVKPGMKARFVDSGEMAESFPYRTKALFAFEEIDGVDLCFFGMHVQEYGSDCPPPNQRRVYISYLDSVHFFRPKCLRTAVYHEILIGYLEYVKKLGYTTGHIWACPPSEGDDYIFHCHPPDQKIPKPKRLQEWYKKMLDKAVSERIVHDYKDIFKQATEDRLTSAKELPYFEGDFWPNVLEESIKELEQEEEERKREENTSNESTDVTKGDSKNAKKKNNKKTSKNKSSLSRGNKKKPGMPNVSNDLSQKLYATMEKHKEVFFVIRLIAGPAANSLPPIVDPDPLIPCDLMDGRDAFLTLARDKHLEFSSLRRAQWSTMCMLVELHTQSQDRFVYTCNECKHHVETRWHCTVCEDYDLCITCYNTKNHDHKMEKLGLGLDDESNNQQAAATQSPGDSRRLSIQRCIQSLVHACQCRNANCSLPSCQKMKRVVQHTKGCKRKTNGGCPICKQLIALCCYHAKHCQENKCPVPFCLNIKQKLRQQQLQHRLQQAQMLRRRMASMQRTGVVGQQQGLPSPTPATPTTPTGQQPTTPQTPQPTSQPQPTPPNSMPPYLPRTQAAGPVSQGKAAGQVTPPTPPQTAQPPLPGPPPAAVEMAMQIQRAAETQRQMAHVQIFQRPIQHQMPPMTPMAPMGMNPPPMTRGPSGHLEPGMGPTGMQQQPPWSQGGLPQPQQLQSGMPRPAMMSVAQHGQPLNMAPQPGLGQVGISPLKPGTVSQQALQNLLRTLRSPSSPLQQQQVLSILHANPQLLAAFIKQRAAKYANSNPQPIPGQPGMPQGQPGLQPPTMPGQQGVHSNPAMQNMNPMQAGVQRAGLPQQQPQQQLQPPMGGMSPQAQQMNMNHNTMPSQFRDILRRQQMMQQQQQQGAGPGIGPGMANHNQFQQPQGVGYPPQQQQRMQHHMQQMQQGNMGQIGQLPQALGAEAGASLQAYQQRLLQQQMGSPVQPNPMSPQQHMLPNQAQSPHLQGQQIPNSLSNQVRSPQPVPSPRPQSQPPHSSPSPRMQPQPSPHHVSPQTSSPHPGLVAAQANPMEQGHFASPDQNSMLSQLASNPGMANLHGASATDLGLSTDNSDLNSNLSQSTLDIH
Chain of HPV16 E6 (human papillomavirus type 16 (HPV16)) (P03126 whole entry): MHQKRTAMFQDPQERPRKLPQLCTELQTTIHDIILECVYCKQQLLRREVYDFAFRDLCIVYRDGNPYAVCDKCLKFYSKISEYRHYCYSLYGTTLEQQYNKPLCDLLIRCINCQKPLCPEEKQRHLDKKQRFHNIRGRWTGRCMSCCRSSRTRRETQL

exogenous CH1 domain of p300 (pcDNA3.1/CH1) (from UniProt Q09472 332-417)
p53 transcription activity (luciferase reporter), UMSCC47/CH1 cells [1]: 85%
p53 transcription activity (luciferase reporter), UPCI:SCC090/CH1 cells [1]: 50%
p53 transcription activity (luciferase reporter), UMSCC74A/CH1 compared to UMSCC74A/empty cells [2]: 68%
